The text below walks through data of patent US20020034767.

The series relates to G protein βγ subunits.

In the case of β-adrenergic receptor kinase, the “rhodopsin phosphorylation in the presence or absence of 100 nM G protein βγ subunits” value was “βARK is significantly activated in the presence of G protein βγ subunits”.
